# Reference: publication PMC5314338, “Structure of a LOV protein in apo-state and implications for construction of LOV-based optical tools” (Scientific Reports, 2017)
# Target: W619_1-LOV, short LOV protein from Pseudomonas putida (Pseudomonas putida)
# Assay: crystal structure; apo-state; sitting drops grown in the dark, 100 mM MES pH 6.0-6.3, 1 M ammonium sulfate, 14 °C; space group I4(1), two molecules per asymmetric unit
substance,measurement,value
"W619_1-LOV, short LOV protein from Pseudomonas putida (natural protein)",stoichiometry N,2
